According to IntAct's records for PubMed 24705590:

B1: Microcin J25 (Escherichia coli), Q9X2V7 (parent)
chain: MIKHFHFNKLSSGKKNNVPSPAKGVIQIKKSASQLTKGGAGHVPEYFVGIGTPISFYG

Variants of: B1
Conditions: with fhua_ecoli fhuA
For H42K, the “effect of a mutation on the interaction” value was “decreasing interaction strength”.
